Laboratory results taken from article PMC9290910, “Neuropilin‐1 is required for endothelial cell adhesion to soluble vascular endothelial growth factor receptor 1” (The Febs Journal, 2021).

T1: Recombinant human NRP‐1 (human, UniProt O14786 22-856)
T1 construct: Neuropilin-1, human, recombinant soluble protein; see the vendor's datasheet (as far as I recall an extracellular fragment with a C-terminal His tag); also called Neuropilin‐1; soluble NRP‐1; source: bought: R&D Systems (3870‐N1)
T1 sequence (looked up): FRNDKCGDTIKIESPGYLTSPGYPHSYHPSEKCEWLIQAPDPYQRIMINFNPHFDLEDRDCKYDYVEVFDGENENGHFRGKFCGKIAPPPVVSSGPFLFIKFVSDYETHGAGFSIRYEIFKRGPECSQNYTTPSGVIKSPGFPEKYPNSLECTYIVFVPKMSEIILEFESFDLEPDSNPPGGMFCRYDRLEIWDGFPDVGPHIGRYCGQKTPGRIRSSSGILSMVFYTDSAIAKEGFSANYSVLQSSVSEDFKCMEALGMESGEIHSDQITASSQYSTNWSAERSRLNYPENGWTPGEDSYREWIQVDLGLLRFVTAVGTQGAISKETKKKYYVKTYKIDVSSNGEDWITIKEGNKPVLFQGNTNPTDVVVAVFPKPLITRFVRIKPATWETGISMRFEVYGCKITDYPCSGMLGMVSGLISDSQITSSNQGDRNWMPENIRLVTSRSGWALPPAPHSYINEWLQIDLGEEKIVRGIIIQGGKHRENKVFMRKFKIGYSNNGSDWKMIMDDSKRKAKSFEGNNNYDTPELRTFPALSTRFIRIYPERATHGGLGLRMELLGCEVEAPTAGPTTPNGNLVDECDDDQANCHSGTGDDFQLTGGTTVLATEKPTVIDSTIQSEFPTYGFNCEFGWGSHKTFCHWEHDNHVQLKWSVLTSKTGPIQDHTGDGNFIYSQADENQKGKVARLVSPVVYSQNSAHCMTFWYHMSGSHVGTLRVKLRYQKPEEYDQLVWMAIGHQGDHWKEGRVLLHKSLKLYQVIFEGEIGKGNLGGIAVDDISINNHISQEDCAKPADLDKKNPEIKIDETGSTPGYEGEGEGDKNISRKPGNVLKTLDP

B1: semaphorin 3A (ligand)
chain: NYQNGKNNVPRLKLSYKEMLESNNVITFNGLANSSSYHTFLLDEERSRLYVGAKDHIFSFDLVNIKDFQKIVWPVSYTRRDECKWAGKDILKECANFIKVLKAYNQTHLYACGTGAFHPICTYIEIGHHPEDNIFKLENSHFENGRGKSPYDPKLLTASLLIDGELYSGTAADFMGRDFAIFRTLGHHHPIRTEQHDSRWLNDPKFISAHLISESDNPEDDKVYFFFRENAIDGEHSGKATHARIGQICKNDFGGHRSLVNKWTTFLKARLICSVPGPNGIDTHFDELQDVFLMNFKDPKNPVVYGVFTTSSNIFKGSAVCMYSMSDVRRVFLGPYAHRDGPNYQWVPYQGRVPYPRPGTCPSKTFGGFDSTKDLPDDVITFARSHPAMYNPVFPMNNRPIVIKTDVNYQFTQIVVDRVDAEDGQYDVMFIGTDVGTVLKVVSIPKETWYDLEEVLLEEMTVFREPTAISAMELSTKQQQLYIGSTAGVAQLPLHRCDIYGKACAECCLARDPYCAWDGSACSRYFPTAKRRTRRQDIRNGDPLTHCSDLHHDNHHGHSPEERIIYGVENSSTFLECSPKSQRALVYWQFQRRNEERKEEIRVDDHIIRTDQGLLLRSLQQKDSGNYLCHAVEHGFIQTLLKVTLEVIDTEHLEELLHKDDDGDGSKTKEMSNSMTPSQKVWYRDFMQLINHPNLNTMDEFCEQVWKRDRKQRRQRPGHTPGNSNKWKHLQENKKGRNRRTHEFERAPRSV
B2: Recombinant human VEGFR‐1/Fc (Fc fusion, UniProt P17948 27-758, looked up)
chain: SKLKDPELSLKGTQHIMQAGQTLHLQCRGEAAHKWSLPEMVSKESERLSITKSACGRNGKQFCSTLTLNTAQANHTGFYSCKYLAVPTSKKKETESAIYIFISDTGRPFVEMYSEIPEIIHMTEGRELVIPCRVTSPNITVTLKKFPLDTLIPDGKRIIWDSRKGFIISNATYKEIGLLTCEATVNGHLYKTNYLTHRQTNTIIDVQISTPRPVKLLRGHTLVLNCTATTPLNTRVQMTWSYPDEKNKRASVRRRIDQSNSHANIFYSVLTIDKMQNKDKGLYTCRVRSGPSFKSVNTSVHIYDKAFITVKHRKQQVLETVAGKRSYRLSMKVKAFPSPEVVWLKDGLPATEKSARYLTRGYSLIIKDVTEEDAGNYTILLSIKQSNVFKNLTATLIVNVKPQIYEKAVSSFPDPALYPLGSRQILTCTAYGIPQPTIKWFWHPCNHNHSEARCDFCSNNEESFILDADSNMGNRIESITQRMAIIEGKNKMASTLVVADSRISGIYICIASNKVGTVGRNISFYITDVPNGFHVNLEKMPTEGEDLKLSCTVNKFLYRDVTWILLRTVNNRTMHYSISKQKMAITKEHSITLNLTIMNVSLQDSGTYACRARNVYTGEEILQKKEITIRDQEAPYLLRNLSDHTVAISSSTTLDCHANGVPEPQITWFKNNHKIQQEPGIILGPGSSTLFIERVTEEDEGVYHCKATNQKGSVESSAYLTVQGTSDKSNLE
notes: VEGFR-1 (Flt-1), human, recombinant Fc chimera; also called sVEGFR‐1; sVEGFR‐1/Fc; source: bought: R&D Systems (321‐FL‐050)

Assays:
sVEGFR‐1 = test: SPR, α5β1 integrin binding to immobilized sVEGFR‐1; design: species or system human; conditions: sVEGFR‐1 immobilized, α5β1 integrin 80 nM-1 μM
Experimental: Fig. 7 sVEGFR‐1/α5β1 integrin interaction. (A) SPR analysis of the interaction between sVEGFR‐1 and α5β1 integrin. sVEGFR‐1 is immobilized on sensor chips and α5β1 integrin is injected at different concentrations (from bottom to top: 80 nM, cyan; 160 nM, red; 350 nM, green; 600 nM, blue; and 1 μM, black). […] (B) Secondary structure representation of the 3D structure of VEGFR‐1 Ig‐like domain II. β‐strands are represented by arrows and labelled from A to H; loops are shown as tubular ribbons; the N‐ and C‐terminal ends of the domain are indicated by labels. Colour coding: peptide 12 (interacting with α5β1 integrin) is blue; Flt2‐11 peptide (interacting with NRP‐1) is yellow in the five‐residue NITVT region corresponding to the Flt2‐5 peptide (see text), and green in the remaining six‐residues region; the rest of the domain is magenta. (C) Proposed mechanism of action of Flt2‐11 peptide. Left: Light blue arrows indicate the high‐affinity interactions: (i) between NRP‐1 (yellow) and α5β1 integrin (black) on the EC membrane; and (ii) between NRP‐1 on the EC membrane and the sVEGFR‐1 substrate (green). The dark blue arrow indicates the low‐affinity interaction between α5β1 integrin on the EC membrane and the sVEGFR‐1 substrate. The low‐affinity interaction is stabilized by the two high‐affinity interactions, and the angiogenic stimulus is triggered. Centre: The Flt2‐11 peptide inhibits the high‐affinity interaction between NRP‐1 on the EC membrane and the sVEGFR‐1 substrate. The low‐affinity interaction between α5β1 integrin on ECs and the sVEGFR‐1 substrate is not sufficiently stable to trigger the angiogenic stimulus that starts upon integrin engagement. […]
(§1) SPR experiments were carried out using a BIACORE X system (Biacore AB, Uppsala, Sweden). […] The reaction was carried out in 20 mM sodium acetate at pH 5.0, which is about 2 points below the theoretical NRP‐1 isoelectric point calculated using the program pI‐tool. […]

NRP‐1 [1] = test: SPR, α5β1 integrin binding to immobilized NRP‐1; design: species or system human; conditions: NRP‐1 immobilized, α5β1 integrin 20-500 nM
Experimental: SPR analysis of NRP‐1 interaction with α5β1 integrin or semaphorin 3A, in the absence or presence of Flt2‐11 peptide or ‘scrambled’ Flt2‐11. NRP‐1 is immobilized on sensor chip. (A) α5β1 integrin is injected at different concentrations (from bottom to top: 20 nM, cyan; 40 nM, red; 100 nM, green; 200 nM, blue; and 500 nM, black). […] (B) α5β1 integrin is injected at 200 nM concentration together with either Flt2‐11 peptide or scrambled Flt2‐11 peptide at different concentrations (no peptides, black; Flt2‐11 peptide […] and 20 μM, blue and cyan, respectively; scrambled Flt2‐11 peptide at 2 μM and 20 μM, red and purple, respectively). (C) Semaphorin 3A is injected at different concentrations (from bottom to top: 20 nM, cyan; 30 nM, red; 50 nM, green; 200 nM, blue; and 500 nM, black). […] (D) Semaphorin 3A is injected at 200 nM, and peptide Flt2‐11 at different concentrations (no peptides, black; Flt2‐11 peptide 1 μM and 10 μM blue and cyan, respectively; scrambled Flt2‐11 peptide 50 μM, red).
as §1
RU express the mass concentration‐dependent changes in the observed SPR signal, that is, the refractive index on the sensor chip surface. Changes in this signal are determined by the interaction between the immobilized protein (i.e., either NRP‐1 or VEGFR‐1) with the analyte protein (i.e., VEGFR‐1/Fc, α5β1 integrin or semaphorin 3A). […] Global fitting analyses of association and dissociation data for all ligand concentrations were carried out using BIAEVALUATION software 3.0 (Biacore, Uppsala, Sweden), which allows the ratio between association and dissociation constants (k on/k off) to be accurately determined. […]

Recombinant human NRP‐1 = target: T1, Recombinant human NRP‐1; test: SPR; BIACORE X, CM5; NRP-1 immobilised by amine coupling; analyte in HEPES-buffered saline (10 mM HEPES pH 7.4, 150 mM NaCl, 0.005% P20); global 1:1 Langmuir fit; conditions: both partners purified
NRP‐1 [2] = test: SPR, semaphorin 3A binding to immobilized NRP‐1; design: species or system human; conditions: NRP‐1 immobilized, semaphorin 3A 20-500 nM
Experimental: SPR analysis of NRP‐1 interaction with α5β1 integrin or semaphorin 3A, in the absence or presence of Flt2‐11 peptide or ‘scrambled’ Flt2‐11. NRP‐1 is immobilized on sensor chip. (A) α5β1 integrin is injected at different concentrations (from bottom to top: 20 nM, cyan; 40 nM, red; 100 nM, green; 200 nM, blue; and 500 nM, black). […] (B) α5β1 integrin is injected at 200 nM concentration together with either Flt2‐11 peptide or scrambled Flt2‐11 peptide at different concentrations (no peptides, black; Flt2‐11 peptide […] and 20 μM, blue and cyan, respectively; scrambled Flt2‐11 peptide at 2 μM and 20 μM, red and purple, respectively). (C) Semaphorin 3A is injected at different concentrations (from bottom to top: 20 nM, cyan; 30 nM, red; 50 nM, green; 200 nM, blue; and 500 nM, black). […]
as §1
RU express the mass concentration‐dependent changes in the observed SPR signal, that is, the refractive index on the sensor chip surface. Changes in this signal are determined by the interaction between the immobilized protein (i.e., either NRP‐1 or VEGFR‐1) with the analyte protein (i.e., VEGFR‐1/Fc, α5β1 integrin or semaphorin 3A). […]

Purified α5β1 integrin = target: T2, Purified α5β1 integrin (UniProt P08648 42-1049; P05556 21-728); test: SPR; BIACORE X, CM5; VEGFR-1/Fc captured (about 200 RU) on amine-coupled protein A; α5β1 integrin injected; HEPES-buffered saline (10 mM HEPES pH 7.4, 150 mM NaCl, 0.005% P20); 1:1 Langmuir fit; conditions: both partners purified
T2 construct: integrin alpha-5 subunit; integrin beta-1 subunit; As far as I recall this product is purified from human tissue; also called integrin α5β1; source: bought: Merck Millipore (CC1052), purified, octyl‐β‐D‐glucopyranoside formulation
T2 sequence (P08648 42-1049, chain 1 of 2): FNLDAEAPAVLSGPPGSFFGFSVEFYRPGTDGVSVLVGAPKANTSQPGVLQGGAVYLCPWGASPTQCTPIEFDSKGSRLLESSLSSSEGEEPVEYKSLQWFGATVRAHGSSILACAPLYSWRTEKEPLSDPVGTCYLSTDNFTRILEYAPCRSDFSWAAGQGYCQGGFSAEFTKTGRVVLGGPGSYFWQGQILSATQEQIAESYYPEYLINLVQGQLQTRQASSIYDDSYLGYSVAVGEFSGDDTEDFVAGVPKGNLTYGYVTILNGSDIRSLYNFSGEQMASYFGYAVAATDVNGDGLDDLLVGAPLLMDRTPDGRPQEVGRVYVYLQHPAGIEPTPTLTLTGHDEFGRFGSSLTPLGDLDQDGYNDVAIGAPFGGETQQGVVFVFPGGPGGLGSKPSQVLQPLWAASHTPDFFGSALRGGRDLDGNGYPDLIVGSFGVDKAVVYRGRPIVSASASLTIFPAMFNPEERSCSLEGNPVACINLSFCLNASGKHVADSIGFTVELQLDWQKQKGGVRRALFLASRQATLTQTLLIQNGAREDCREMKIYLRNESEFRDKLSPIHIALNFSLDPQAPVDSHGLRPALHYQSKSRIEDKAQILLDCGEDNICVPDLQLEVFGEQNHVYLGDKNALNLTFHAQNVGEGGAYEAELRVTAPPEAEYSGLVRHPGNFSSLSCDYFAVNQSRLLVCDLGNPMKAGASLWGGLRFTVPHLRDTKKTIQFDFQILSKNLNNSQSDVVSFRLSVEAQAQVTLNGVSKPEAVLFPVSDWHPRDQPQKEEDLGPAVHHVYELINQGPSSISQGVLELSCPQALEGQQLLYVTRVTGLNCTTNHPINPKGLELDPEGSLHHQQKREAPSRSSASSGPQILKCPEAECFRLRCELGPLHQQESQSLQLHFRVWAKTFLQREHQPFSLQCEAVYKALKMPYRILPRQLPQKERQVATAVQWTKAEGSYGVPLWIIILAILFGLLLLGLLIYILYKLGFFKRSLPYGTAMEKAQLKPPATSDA
T2 sequence (P05556 21-728, chain 2 of 2): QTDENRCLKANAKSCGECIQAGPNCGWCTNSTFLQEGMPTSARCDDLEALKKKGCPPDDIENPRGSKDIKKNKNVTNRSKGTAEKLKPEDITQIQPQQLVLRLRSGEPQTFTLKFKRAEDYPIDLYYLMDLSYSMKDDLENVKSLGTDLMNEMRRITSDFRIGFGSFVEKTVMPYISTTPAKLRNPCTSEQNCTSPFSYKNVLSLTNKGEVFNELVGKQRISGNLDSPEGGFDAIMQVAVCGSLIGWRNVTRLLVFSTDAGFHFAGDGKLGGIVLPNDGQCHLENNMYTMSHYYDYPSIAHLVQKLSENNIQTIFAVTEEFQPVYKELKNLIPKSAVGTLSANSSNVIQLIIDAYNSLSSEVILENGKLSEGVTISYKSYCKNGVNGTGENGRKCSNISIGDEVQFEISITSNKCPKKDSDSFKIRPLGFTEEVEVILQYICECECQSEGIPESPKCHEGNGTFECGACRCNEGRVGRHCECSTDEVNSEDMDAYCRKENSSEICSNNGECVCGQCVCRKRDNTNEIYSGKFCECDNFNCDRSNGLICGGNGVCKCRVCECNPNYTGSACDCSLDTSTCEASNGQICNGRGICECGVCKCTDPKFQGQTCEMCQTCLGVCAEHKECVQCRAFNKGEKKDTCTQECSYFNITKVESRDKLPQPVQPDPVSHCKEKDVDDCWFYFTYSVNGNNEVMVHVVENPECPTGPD

Row | Molecule | k off (sVEGFR‐1) [s⁻¹] | k on (sVEGFR‐1) [M⁻¹ s⁻¹] | Kd (sVEGFR‐1; read-out: K D, sVEGFR‐1/α5β1 integrin) [nM] | k off (NRP‐1 [1]) [s⁻¹] | k on (NRP‐1 [1]) [M⁻¹ s⁻¹] | Kd (NRP‐1 [1]; read-out: K D, NRP‐1/α5β1 integrin) [nM] | Kd (Recombinant human NRP‐1) [nM] | koff (Recombinant human NRP‐1) [s⁻¹] | kon (Recombinant human NRP‐1) [M⁻¹ s⁻¹] | k off (NRP‐1 [2]) [s⁻¹] | k on (NRP‐1 [2]) [M⁻¹ s⁻¹] | Kd (Purified α5β1 integrin) [nM] | koff (Purified α5β1 integrin) [s⁻¹] | kon (Purified α5β1 integrin) [M⁻¹ s⁻¹]
1 | α5β1 integrin: Purified α5β1 integrin (CC1052), Merck Millipore | 0.00029 | 1500 | 195 ± 40 | 0.00029 | 21000 | 14 ± 4 |  |  |  |  |  |  |  | 
2 | B1 |  |  |  |  |  |  | 24 ± 6 | 9e-05 | 3700 | 9e-05 | 3700 |  |  | 
3 | B2 |  |  |  |  |  |  | 25 ± 4 | 0.0003 | 12000 |  |  | 195 ± 40 | 0.00029 | 1500
